Measurements: publication PMC10033314
Numbering of substitutions follows the chain as printed. Names may count otherwise. Where two headings read alike, the source gives them in different places.

B1: ADAMTS1 variant 756-765/828-835 (β3-β4 and β9-β10 loops replaced by those of ADAMTS4) (enzyme)
chain: FVSSHRYVETMLVADQSMAEFHGSGLKHYLLTLFSVAARLYKHPSIRNSVSLVVVKILVIHDEQKGPEVTSNAALTLRNFCNWQKQHNPPSDRDAEHYDTAILFTRQDLCGSQTCDTLGMADVGTVCDPSRSCSVIEDDGLQAAFTTAHELGHVFNMPHDDAKQCASLNGVNQDSHMMASMLSNLDHSQPWSPCSAYMITSFLDNGHGECLMDKPQNPIQLPGDLPGTSYDANRQCQFTFGEDSKHCPDAASTCSTLWCTGTSGGVLVCQTKHFPWADGTSCGEGKWCINGKCVNKTDRKHFDTPFHGSWGMWGPWGDCSRTCGGGVQYTMRECDNPVPKNGGKYCEGKRVRYRSCNLEDCPDNNGKTFREEQCEAHNEFSKASFGSGPAVEWIPKYAGVSPKDRCKLICQAKGIGYFFVLQPKVVDGTPCSPDSTSVCVQGQCVKAGCDRIIDSKKKFDKCGVCGGNGSTCKKISGSVTSAKPGYHDIITIPTGATNIEVKQQGNPGHRSSFLAIKAADGTYILNGDYTLSTLEQDIMYKGVVLRYSGSSAALERIRSFSPLKEPLTIQVLTAGNPQDTRIKYTYFVKKKKESFNAIPTFSAWVIEEWGECSKSCELGWQRRLVECRDINGQPASECAKEVKPASTRPCADHPCPQWQLGEWSSCSKTCGKGYKKRSLKCLSHDGGVLSHESCDPLKKPKHFIDFCTMAECS
B2: A disintegrin-like and metalloproteinase with thrombospondin type 1 motifs 1 (ADAMTS1), wild type (enzyme)
chain: FVSSHRYVETMLVADQSMAEFHGSGLKHYLLTLFSVAARLYKHPSIRNSVSLVVVKILVIHDEQKGPEVTSNAALTLRNFCNWQKQHNPPSDRDAEHYDTAILFTRQDLCGSQTCDTLGMADVGTVCDPSRSCSVIEDDGLQAAFTTAHELGHVFNMPHDDAKQCASLNGVNQDSHMMASMLSNLDHSQPWSPCSAYMITSFLDNGHGECLMDKPQNPIQLPGDLPGTSYDANRQCQFTFGEDSKHCPDAASTCSTLWCTGTSGGVLVCQTKHFPWADGTSCGEGKWCINGKCVNKTDRKHFDTPFHGSWGMWGPWGDCSRTCGGGVQYTMRECDNPVPKNGGKYCEGKRVRYRSCNLEDCPDNNGKTFREEQCEAHNEFSKASFGSGPAVEWIPKYAGVSPKDRCKLICQAKGIGYFFVLQPKVVDGTPCSPDSTSVCVQGQCVKAGCDRIIDSKKKFDKCGVCGGNGSTCKKISGSVTSAKPGYHDIITIPTGATNIEVKQRNQRGSRNNGSFLAIKAADGTYILNGDYTLSTLEQDIMYKGVVLRYSGSSAALERIRSFSPLKEPLTIQVLTVGNALRPKIKYTYFVKKKKESFNAIPTFSAWVIEEWGECSKSCELGWQRRLVECRDINGQPASECAKEVKPASTRPCADHPCPQWQLGEWSSCSKTCGKGYKKRSLKCLSHDGGVLSHESCDPLKKPKHFIDFCTMAECS
B3: ADAMTS1 K795Q (β6-β7 loop of the spacer domain) (enzyme)
chain: B2 chain with K543Q
B4: ADAMTS1 K735Q (β1-β2 loop of the spacer domain) (enzyme)
chain: B2 chain with K483Q
B5: ADAMTS1 K818Q (β8-β9 loop of the spacer domain) (enzyme)
chain: B2 chain with K566Q
B6: ADAMTS1 R756Q/R759Q/R762Q (β3-β4 loop of the spacer domain) (enzyme)
chain: B2 chain with R504Q, R507Q, R510Q
B7: ADAMTS1 variant 828-835 (β9-β10 loop residues 828-835 replaced by ADAMTS4 residues 788-795) (enzyme)
chain: B2 chain with V576A, A579P, L580Q, R581D, P582T, K583R
B8: ADAMTS1 K735Q/K795Q (β1-β2 and β6-β7 loops of the spacer domain) (enzyme)
chain: B2 chain with K483Q, K543Q

What was measured:
[1] = target: Versican V1-5GAG (truncated V1, residues 21-694) (UniProt P13611)
[2] = target: Quenched-fluorescent peptide substrate fluorescein-5(6)-carbonyl-Ala-Glu-Leu-Asn-Gly-Arg-Pro-Ile-Ser-Ile-Ala-Lys(5(6)-TAMRA)
[3] = target: Biglycan, full length, C-terminal 6x-His (human) (UniProt P21810)
Sequence of UniProt P21810 (P21810 38-368): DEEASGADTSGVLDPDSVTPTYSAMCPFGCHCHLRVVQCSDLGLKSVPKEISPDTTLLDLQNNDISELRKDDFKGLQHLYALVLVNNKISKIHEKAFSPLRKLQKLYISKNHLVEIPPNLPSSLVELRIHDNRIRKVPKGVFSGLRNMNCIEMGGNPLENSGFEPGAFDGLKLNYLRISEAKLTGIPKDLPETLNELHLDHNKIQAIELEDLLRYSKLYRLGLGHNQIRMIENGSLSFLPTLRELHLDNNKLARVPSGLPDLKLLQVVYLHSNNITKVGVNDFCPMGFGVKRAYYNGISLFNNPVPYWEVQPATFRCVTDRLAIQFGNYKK

ADAMTS1 (Homo sapiens) = ADAMTS1 (Homo sapiens) (UniProt Q9UHI8); settings: cited from earlier work
[4] = target: Versican G3 (Homo sapiens) (UniProt P13611); settings: cited from earlier work
[5] = target: Versican V1-5GAG (truncated V1, residues 21-694) (UniProt P13611); remark: listed apart in the source
Full-length versican V1 [6] = target: Full-length versican V1 (UniProt P13611)
Full-length versican V1 [7] = target: Full-length versican V1 (UniProt P13611); remark: listed apart in the source
[8] = target: Versican V1-5GAG (truncated V1, residues 21-694) (UniProt P13611); remark: listed apart in the source

Row | Molecule | kcat/Km for proteolysis of the QF peptide [2] [M⁻¹ s⁻¹] | kcat/Km for cleavage of V1-5GAG (50 nM), time course with versikine ELISA [5] [M⁻¹ s⁻¹] | other results
1 | ADAMTS1 variant MD (truncated after the disintegrin-like domain) (domain or fragment) | 6100 |  | kcat/Km for cleavage of V1-5GAG (50 nM), time course with versikine ELISA [1]: 61 M⁻¹ s⁻¹
2 | ADAMTS1 variant MDT (truncated after the central TSR motif) (domain or fragment) | 6200 |  | kcat/Km for cleavage of V1-5GAG (50 nM), time course with versikine ELISA [1]: 66 M⁻¹ s⁻¹
3 | ADAMTS1 variant MDTC (truncated after the cysteine-rich domain) (domain or fragment) | 4500 |  | kcat/Km for cleavage of V1-5GAG (50 nM), time course with versikine ELISA [1]: 260 M⁻¹ s⁻¹; reduction of the 30 kDa biglycan fragment against WT ADAMTS1; variant at 50 nM, 24 h at 37 °C, immunoblot and densitometry [3]: 75 % reduction
4 | ADAMTS1 variant MDTCS (truncated after the spacer domain) (domain or fragment) | 7600 |  | kcat/Km for cleavage of V1-5GAG (50 nM), time course with versikine ELISA [1]: 7300 M⁻¹ s⁻¹
5 | Fibulin-1 (from UniProt P23142) |  |  | Kd (ADAMTS1 (Homo sapiens)): 1000 nM
6 | Fibulin-1 domain II (from UniProt P23142) |  |  | Kd [4]: 26 nM
7 | B1 |  | 460 | 
8 | B2 | 4200 |  | kcat/Km for cleavage of FL versican, as told in the discussion and the abstract (Full-length versican V1 [6]): 3600 M⁻¹ s⁻¹; kcat/Km for cleavage of V1 (50 nM) at Glu441-Ala442, time course with versikine ELISA, no cofactor (Full-length versican V1 [7]): 3400 M⁻¹ s⁻¹; kcat/Km for cleavage of V1-5GAG (50 nM) at Glu441-Ala442, time course with versikine ELISA [8]: 4200 M⁻¹ s⁻¹
9 | B3 |  | 730 | 
10 | B4 |  | 4800 | 
11 | B5 |  | 6050 | 
12 | B6 |  | 870 | 
13 | B7 |  | 410 | 
14 | B8 |  | 570 | 
